Assay results from patent US20230057987A1 (published 2023).

T1: similar peptide SP-05-0002, source protein not stated peptide on HLA-A*02:01 (human)
T1 peptide: KIFSGLLKV

T2: similar peptide SP-05-0003, source protein not stated peptide on HLA-A*02:01 (human)
T2 peptide: KVTEMLVNV

T3: similar peptide SP-05-0004, source protein not stated peptide on HLA-A*02:01 (human)
T3 peptide: KIWEWLVGV

T4: similar peptide SP-05-0005, source protein not stated peptide on HLA-A*02:01 (human)
T4 peptide: KIEEFLEAV

T5: similar peptide SP-05-0006, source protein not stated peptide on HLA-A*02:01 (human)
T5 peptide: KIAELLENV

T6: similar peptide SP-05-0007, source protein not stated peptide on HLA-A*02:01 (human)
T6 peptide: KIFPALCTV

T7: similar peptide SP-05-0008, source protein not stated peptide on HLA-A*02:01 (human)
T7 peptide: KILDELEKV

T8: similar peptide SP-05-0009, source protein not stated peptide on HLA-A*02:01 (human)
T8 peptide: KIIDLLPKV

T9: similar peptide SP-05-0010, source protein not stated peptide on HLA-A*02:01 (human)
T9 peptide: RIFETVNSV

T10: CT45-IP alanine variant, position 8 peptide on HLA-A*02:01 (human)
T10 peptide: KIFEMLEAV

T11: similar peptide SP-05-0001, source protein not stated peptide on HLA-A*02:01 (human)
T11 peptide: HIMEHLEGV

T12: CT45 (CT45A1, A2, A3, A5 to A10); CT45-IP peptide on HLA-A*02:01 (human)
T12 peptide: KIFEMLEGV

T13: CT45-IP alanine variant, position 5 peptide on HLA-A*02:01 (human)
T13 peptide: KIFEALEGV

T14: CT45-IP alanine variant, position 1 peptide on HLA-A*02:01 (human)
T14 peptide: AIFEMLEGV

B1: TCR-1 (TCR, V domains shown)
Valpha: QTVTQSQPEMSVQEAETVTLSCTYDTSENNYYLFWYKQPPSRQMILVIRQEAYKQQNATENRFSVNFQKAAKSFSLKISDSQLGDTAMYFCAPLGLVAGSARQLTFGSGTQLTVLP
Vbeta: GVSQDPRHKITKRGQNVTFRCDPISEHNRLYWYRQTLGQGPEFLTYFQNEAQLEKSRLLSDRFSAERPKGSFSTLEIQRTEQGDSAMYLCASSTDITSYEQYFGPGTRLTVT
B2: TCR-13 (TCR, V domains shown)
Valpha: QKITQTQPGMFVQEKEAVTLDCTYDTSDQSYGLFWYKQPSSGEMIFLIYQGSYDEQNATEGRYSLNFQKARKSANLVISASQLGDSAMYFCAMSDPIMDTGRRALTFGSGTRLQVQP
Vbeta: GITQSPKYLFRKEGQNVTLSCEQNLNHDAMYWYRQDPGQGLRLIYYSQIVNDFQKGDIAEGYSVSREKKESFPLTVTSAQKNPTAFYLCASKSRGPNLADTQYFGPGTRLTVL
B3: TCR-15 (TCR, V domains shown)
Valpha: KQEVTQIPAALSVPEGENLVLNCSFTDSAIYNLQWFRQDPGKGLTSLLLIQSSQREQTSGRLNASLDKSSGRSTLYIAASQPGDSATYLCAVLLTGKLIFGQGTTLQVKP
Vbeta: GVTQTPRYLIKTRGQQVTLSCSPISGHRSVSWYQQTPGQGLQFLFEYFSETQRNKGNFPGRFSGRQFSNSRSEMNVSTLELGDSALYLCASSGGPGPSGEQYFGPGTRLTVT
B4: TCR-2 (TCR, V domains shown)
Valpha: QKITQTQPGMFVQEKEAVTLDCTYDTSDQSYGLFWYKQPSSGEMIFLIYQGSYDEQNATEGRYSLNFQKARKSANLVISASQLGDSAMYFCAMREGSDAGGTSYGKLTFGQGTILTVHP
Vbeta: GVIQSPRHLIKEKRETATLKCYPIPRHDTVYWYQQGPGQDPQFLISFYEKMQSDKGSIPDRFSAQQFSDYHSELNMSSLELGDSALYFCASSPSTGRLNTEAFFGQGTRLTVV
B5: TCR-3 (TCR, V domains shown)
Valpha: QKITQTQPGMFVQEKEAVTLDCTYDTSDQSYGLFWYKQPSSGEMIFLIYQGSYDEQNATEGRYSLNFQKARKSANLVISASQLGDSAMYFCGYSNYQLIWGAGTKLIIKP
Vbeta: QVTQNPRYLITVTGKKLTVTCSQNMNHEYMSWYRQDPGLGLRQIYYSMNVEVTDKGDVPEGYKVSRKEKRNFPLILESPSPNQTSLYFCASREGTGGYQPQHFGDGTRLSIL
B6: TCR-4 (TCR, V domains shown)
Valpha: QSVAQPEDQVNVAEGNPLTVKCTYSVSGNPYLFWYVQYPNRGLQFLLKYITGDNLVKGSYGFEAEFNKSQTSFHLKKPSALVSDSALYFCAAPRDDKIIFGKGTRLHILP
Vbeta: GVTQTPKFRVLKTGQSMTLLCAQDMNHEYMYWYRQDPGMGLRLIHYSVGEGTTAKGEVPDGYNVSRLKKQNFLLGLESAAPSQTSVYFCASSYLRTGGNEQFFGPGTRLTVL
B7: TCR-9 (TCR, V domains shown)
Valpha: EDVEQSLFLSVREGDSSVINCTYTDSSSTYLYWYKQEPGAGLQLLTYIFSNMDMKQDQRLTVLLNKKDKHLSLRIADTQTGDSAIYFCAEKETAGNKLTFGGGTRVLVKP
Vbeta: EPEVTQTPSHQVTQMGQEVILRCVPISNHLYFYWYRQILGQKVEFLVSFYNNEISEKSEIFDDQFSVERPDGSNFTLKIRSTKLEDSAMYFCASTVQSPRTNEQFFGPGTRLTVL

Key:
[1] = molecular target: CT45-IP antigenic peptide (…) in complex with HLA-A*02 presented on cells (peptide-loaded T2 cells; NCIH1703 and A375 tumor cells) (human); assay: cell-based or functional assay
[2] = molecular target: T1, similar peptide SP-05-0002, source …; assay: killing
[3] = molecular target: T2, similar peptide SP-05-0003, source …; assay: killing
[4] = molecular target: T3, similar peptide SP-05-0004, source …; assay: killing
[5] = molecular target: T4, similar peptide SP-05-0005, source …; assay: killing
[6] = molecular target: T5, similar peptide SP-05-0006, source …; assay: killing
[7] = molecular target: T6, similar peptide SP-05-0007, source …; assay: killing
[8] = molecular target: T7, similar peptide SP-05-0008, source …; assay: killing
[9] = molecular target: T8, similar peptide SP-05-0009, source …; assay: killing
[10] = molecular target: T9, similar peptide SP-05-0010, source …; assay: killing
[11] = molecular target: T10, CT45-IP alanine variant, position 8 …; assay: killing
[12] = molecular target: T11, similar peptide SP-05-0001, source …; assay: killing
[13] = molecular target: CT45-IP-HLA-A*02 dextramer (human); assay: flow cytometry, dextramer staining of TCR-mRNA electroporated T cells, gated on CD3+
[14] = molecular target: T12, CT45 (CT45A1, A2, A3, A5 to A10); …; assay: luciferase release, 24 h, 1:1; CD8+ T cells with TCR mRNA, T2 cells with titrated peptide; full-length, on cells
[15] = molecular target: T12, CT45 (CT45A1, A2, A3, A5 to A10); …; assay: CT45-IP-HLA-A*02 dextramer on T cells with TCR mRNA; TCR found by tetramer sorting; full-length, on cells
[16] = molecular target: T13, CT45-IP alanine variant, position 5 …; assay: killing
[17] = molecular target: T14, CT45-IP alanine variant, position 1 …; assay: killing

Binder	EC50, half maximal killing capacity (functional avidity; CT45-IP peptide titration on T2 cells, luciferase release) [1]	binding result [2]	binding result [3]	binding result [4]	binding result [5]	binding result [6]	binding result [7]	binding result [8]	binding result [9]	binding result [10]	binding result [11]	binding result [12]	surface expression, % positive events by CT45-IP-HLA-A2*02 dextramer staining [13]	EC50 of peptide [14]	dextramer-positive events [15]	binding result [16]	binding result [17]
B1	7.78 nM	no recognition	no recognition	no recognition	no recognition	no recognition	no recognition	no recognition	no recognition	no recognition	recognises	no recognition	8.9%	7.78 nM	8.9%	–	–
B2	11.4 nM	no recognition	no recognition	no recognition	no recognition	no recognition	no recognition	no recognition	no recognition	no recognition	recognises	no recognition	53.1%	11.4 nM	53.1%	recognises	–
B3	18.6 nM	no recognition	no recognition	no recognition	no recognition	no recognition	no recognition	no recognition	no recognition	no recognition	recognises	no recognition	22.6%	18.6 nM	22.6%	–	–
B4	4.69 nM	no recognition	no recognition	no recognition	no recognition	no recognition	no recognition	no recognition	no recognition	no recognition	recognises	no recognition	39.1%	4.69 nM	39.1%	–	recognises
B5	1.02 nM	no recognition	no recognition	no recognition	no recognition	no recognition	no recognition	no recognition	no recognition	no recognition	recognises	no recognition	27.2%	1.02 nM	27.2%	–	recognises
B6	1.31 nM	no recognition	no recognition	no recognition	no recognition	no recognition	no recognition	no recognition	no recognition	no recognition	–	no recognition	39.1%	1.31 nM	39.1%	recognises	recognises
B7	0.15 nM	no recognition	no recognition	–	no recognition	no recognition	no recognition	no recognition	no recognition	no recognition	–	no recognition	44%	0.15 nM	44%	–	–
